Target: PRELP expressed on the cell surface of human cancer cells (human), P51888
Assay: cell-based or functional assay

Chain of PRELP expressed on the cell surface of human cancer cells (human), P51888 (P51888 21-382): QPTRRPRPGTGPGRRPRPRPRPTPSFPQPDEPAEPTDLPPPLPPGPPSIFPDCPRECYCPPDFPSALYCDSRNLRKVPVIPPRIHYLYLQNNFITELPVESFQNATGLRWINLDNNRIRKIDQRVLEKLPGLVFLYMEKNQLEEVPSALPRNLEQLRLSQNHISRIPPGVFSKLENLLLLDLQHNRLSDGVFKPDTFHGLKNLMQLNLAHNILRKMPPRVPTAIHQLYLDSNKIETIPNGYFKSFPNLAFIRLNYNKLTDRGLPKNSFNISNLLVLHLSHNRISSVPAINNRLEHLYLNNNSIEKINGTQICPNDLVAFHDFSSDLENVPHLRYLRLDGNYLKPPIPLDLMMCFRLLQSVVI

B1: anti-PRELP-SS clone 6G1-G11 (antibody, mouse IgM, V domains shown)
VH: EVKLQQSGAELVKPGASVKLSCTASGFNIKDTYMHWVKQRPEQGLEWIGRIDPANGNTKYDPKFQGKATITADTSSNTAYLQLSSLTSEDTAVYYCARSTTVVVDYWGQGTTLTVSS
VL: DILLTQTPAIKSASPGEKVTMTCSASSSISYMHWYQQKPGTSPKRWIYDTSKLASGVPARFSGSGSGTSYSLTISSMEAEDAATYYCHQRSSYPTFGAGTKLELK
apoptosis (Annexin V-FITC and propidium iodide staining) of CLL cells, 18 hrs, 2.5 ug antibody: 16.9%
apoptosis (Annexin V-FITC and propidium iodide staining) of CLL cells, 18 hrs, 5 ug antibody: 32.2%
apoptosis (Annexin V-FITC and propidium iodide staining) of CLL cells, 18 hrs, 7.5 ug antibody: 39.2%

— patent publication US20130039917A1
